In US20230081195A1 (INSTITUTE OF GENETICS AND DEVELOPMENT BIOLOGY CHINESE …, published 2023):

Experiments:
recombinant OML4 = target: T1, recombinant OML4
T1 chain: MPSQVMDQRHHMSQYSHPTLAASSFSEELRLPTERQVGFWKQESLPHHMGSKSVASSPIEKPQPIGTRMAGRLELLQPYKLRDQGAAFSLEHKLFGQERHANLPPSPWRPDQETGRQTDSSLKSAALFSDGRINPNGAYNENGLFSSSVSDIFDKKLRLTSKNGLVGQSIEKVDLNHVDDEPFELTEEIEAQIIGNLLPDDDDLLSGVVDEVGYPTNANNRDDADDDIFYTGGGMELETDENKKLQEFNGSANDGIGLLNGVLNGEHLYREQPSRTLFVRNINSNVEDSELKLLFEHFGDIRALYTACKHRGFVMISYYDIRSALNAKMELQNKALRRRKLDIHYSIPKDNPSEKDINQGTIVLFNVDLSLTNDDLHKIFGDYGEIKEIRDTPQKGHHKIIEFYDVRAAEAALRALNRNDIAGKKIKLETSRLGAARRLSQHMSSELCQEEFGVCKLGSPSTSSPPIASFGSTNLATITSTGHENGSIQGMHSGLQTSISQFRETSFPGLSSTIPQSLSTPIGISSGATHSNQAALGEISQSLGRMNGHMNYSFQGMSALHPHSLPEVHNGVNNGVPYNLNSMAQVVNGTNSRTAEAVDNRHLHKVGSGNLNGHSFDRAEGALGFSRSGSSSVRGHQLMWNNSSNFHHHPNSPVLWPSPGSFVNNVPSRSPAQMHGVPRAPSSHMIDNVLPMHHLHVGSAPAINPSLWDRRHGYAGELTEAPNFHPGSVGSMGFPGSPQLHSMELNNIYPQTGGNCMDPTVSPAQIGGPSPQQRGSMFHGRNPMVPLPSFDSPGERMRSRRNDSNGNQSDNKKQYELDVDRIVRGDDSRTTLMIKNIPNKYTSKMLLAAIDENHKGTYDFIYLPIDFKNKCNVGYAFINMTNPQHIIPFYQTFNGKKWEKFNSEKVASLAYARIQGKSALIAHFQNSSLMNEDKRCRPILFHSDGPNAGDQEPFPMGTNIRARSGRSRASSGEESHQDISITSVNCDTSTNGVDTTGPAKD

[1] = target: T2, OML4 full-length protein, yeast two-hybrid bait (OML4 cDNA in pGBKT7) (rice, UniProt Q64M78 1-1001); assay: yeast two-hybrid, OML4 full-length protein as bait
T2 construct: Expressed in yeast cells; also called Mei2-Like protein 4; LARGE1; not shown: fusion partner encoded by vector pGBKT7
T2 sequence: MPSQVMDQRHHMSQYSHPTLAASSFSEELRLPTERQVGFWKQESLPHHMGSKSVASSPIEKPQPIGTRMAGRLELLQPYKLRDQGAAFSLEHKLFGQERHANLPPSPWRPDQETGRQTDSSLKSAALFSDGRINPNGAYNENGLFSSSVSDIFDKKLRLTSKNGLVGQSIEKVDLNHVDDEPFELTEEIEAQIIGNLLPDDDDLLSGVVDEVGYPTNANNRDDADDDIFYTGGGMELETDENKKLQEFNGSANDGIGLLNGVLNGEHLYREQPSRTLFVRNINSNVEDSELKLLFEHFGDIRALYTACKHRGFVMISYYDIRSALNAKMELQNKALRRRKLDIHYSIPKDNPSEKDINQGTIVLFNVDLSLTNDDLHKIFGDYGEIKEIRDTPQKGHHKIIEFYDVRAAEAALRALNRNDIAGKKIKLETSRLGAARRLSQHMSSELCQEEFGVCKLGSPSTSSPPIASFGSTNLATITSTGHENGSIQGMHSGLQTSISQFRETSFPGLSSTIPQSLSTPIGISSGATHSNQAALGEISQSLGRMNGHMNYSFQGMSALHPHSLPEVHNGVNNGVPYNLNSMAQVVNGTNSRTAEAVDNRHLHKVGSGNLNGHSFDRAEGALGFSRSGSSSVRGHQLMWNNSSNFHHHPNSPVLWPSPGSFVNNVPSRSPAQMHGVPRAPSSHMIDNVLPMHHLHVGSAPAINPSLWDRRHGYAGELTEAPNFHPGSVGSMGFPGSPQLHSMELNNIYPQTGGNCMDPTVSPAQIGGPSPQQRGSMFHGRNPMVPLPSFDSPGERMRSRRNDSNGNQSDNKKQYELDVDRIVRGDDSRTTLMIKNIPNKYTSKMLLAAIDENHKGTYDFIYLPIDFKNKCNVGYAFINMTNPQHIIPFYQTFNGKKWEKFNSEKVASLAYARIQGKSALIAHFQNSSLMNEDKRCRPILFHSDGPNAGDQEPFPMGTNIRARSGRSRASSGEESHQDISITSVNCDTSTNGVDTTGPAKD
From the text: To further understand the molecular role of OML4 in grain growth control, we identified its interacting partners through a yeast two-hybrid (Y2H) assay. The OML4 full-length protein was used as the bait. Among several interacting proteins, six different clones corresponding to GSK2 were found in this screen. […] We further confirmed the interaction of OML4 with the full length GSK2 in yeast cells (FIG. 5A).
The cDNA sequences of GSK2 and OML4 were amplified using gene-specific primers (Table S4), and products were fused into the linearized pGADT7 and pGBKT7 vectors, respectively. Yeast two-hybrid analysis was conducted according to the manufacturer's instruction (Clontech, USA).

OML4-cYFP = target: T3, OML4-cYFP (rice, UniProt Q64M78 1-1001); assay: bimolecular fluorescence complementation (BiFC), confocal microscopy
T3 construct: Transiently expressed in N. benthamiana leaves; Order of the pieces follows the printed name; also called OML4 fused with the C-terminus of the yellow fluorescent protein; not shown: C-terminus of the yellow fluorescent protein (cYFP, vector pGBW414-cYFP)
T3 sequence: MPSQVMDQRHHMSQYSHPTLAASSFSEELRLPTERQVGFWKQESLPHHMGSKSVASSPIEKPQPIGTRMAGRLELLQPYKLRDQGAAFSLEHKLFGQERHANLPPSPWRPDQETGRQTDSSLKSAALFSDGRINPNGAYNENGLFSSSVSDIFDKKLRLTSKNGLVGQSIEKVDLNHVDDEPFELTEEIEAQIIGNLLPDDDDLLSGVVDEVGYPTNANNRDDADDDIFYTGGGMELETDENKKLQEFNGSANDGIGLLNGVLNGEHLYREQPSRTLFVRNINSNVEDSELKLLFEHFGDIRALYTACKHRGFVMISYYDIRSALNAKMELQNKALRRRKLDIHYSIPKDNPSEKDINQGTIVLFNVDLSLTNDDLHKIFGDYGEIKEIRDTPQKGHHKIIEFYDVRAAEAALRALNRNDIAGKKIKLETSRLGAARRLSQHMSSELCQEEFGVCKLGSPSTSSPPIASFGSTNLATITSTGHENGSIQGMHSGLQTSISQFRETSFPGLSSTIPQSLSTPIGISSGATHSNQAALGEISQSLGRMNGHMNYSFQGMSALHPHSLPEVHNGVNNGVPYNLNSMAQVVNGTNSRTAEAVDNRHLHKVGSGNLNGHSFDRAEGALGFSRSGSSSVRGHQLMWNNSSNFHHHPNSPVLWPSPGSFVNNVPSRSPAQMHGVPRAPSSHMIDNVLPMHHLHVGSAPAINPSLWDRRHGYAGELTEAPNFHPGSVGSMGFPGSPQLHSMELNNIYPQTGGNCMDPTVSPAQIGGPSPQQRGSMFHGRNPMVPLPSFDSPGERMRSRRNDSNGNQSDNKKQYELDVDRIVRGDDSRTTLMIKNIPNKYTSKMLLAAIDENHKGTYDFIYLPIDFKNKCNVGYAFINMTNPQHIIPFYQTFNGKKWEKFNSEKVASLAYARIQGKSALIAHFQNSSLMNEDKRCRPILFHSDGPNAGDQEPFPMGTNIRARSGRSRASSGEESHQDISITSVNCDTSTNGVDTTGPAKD
Description: (A) OML4 interacts with GSK2 in yeast cells. Yeast cells were cultured on SD/-Trp-Leu or SD/-Trp-Leu-His-Ade media. (B) OML4 associates with GSK2 in N. benthamiana. OML4-nLUC and GSK2-cLUC were co-expressed in N. benthamiana leaves. Luciferase activity was observed 48 hours after infiltration. The range of luminescence intensity was scaled by the pseudocolor bar. (C) Bimolecular fluorescence complementation (BiFC) assays shown that OML4 interacts with GSK2 in N. benthamiana. OML4-cYFP was coexpressed with GSK2-nYFP in leaves of N. benthamiana. (D) OML4 binds GSK2 in vitro. GSK2-GST was incubated with OML4-MBP and pulled down by OML4-MBP and detected by immunoblot with anti-GST antibody. IB: immunoblot. (E) Interaction between OML4 and GSK2 in the Co-IP assays. Anti-MYC beads were used to immunoprecipitate GSK2-GFP proteins. Gel blots were probed with anti-MYC or anti-GFP antibody. Bars: 50 μm in C.
We next verified the interaction between OML4 and GSK2 in plant cells using the firefly luciferase (LUC) complementation imaging assay (FIG. 5B). The OML4-nLUC and GSK2-cLUC were transformed and co-expressed in N. benthamiana leaves. […] We then performed bimolecular fluorescence complementation (BiFC) assay to test the interaction between OML4 and GSK2 in plant cells (FIG. 5C). […]

B1: recombinant GSK2 (protein)
chain: MDQPAPAPEPMLLDAQPPAAVACDKKQQEGEAPYAEGNDAVTGHIISTTIGGKNGEPKRTISYMAERVVGTGSFGIVFQAKCLETGETVAIKKVLQDRRYKNRELQLMRAMDHPNVISLKHCFFSTTSRDELFLNLVMEYVPETLYRVLKHYSNANHRMPLIYVKLYMYQLFRGLAYIHTVPGVCHRDVKPQNVLVDPLTHQVKLCDFGSAKTLVPGEPNISYICSRYYRAPELIFGATEYTTSIDIWSAGCVLAELLLGQPLFPGESAVDQLVEIIKVLGTPTREEIRCMNPNYTEFRFPQIKAHPWHKVFHKRMPPEAIDLASRLLQYSPSLRCTALDACAHPFFDELREPNARLPNGRPFPPLFNFKHELANSSQELISRLIPEHVRRQATHNFFNTGS
- phosphopeptides of OML4 found by LC-MS/MS after in vitro kinase reaction (recombinant OML4): We identified 18 phosphopeptides of OML4, which correspond to 14 phosphosites
- phosphosites of OML4 found by LC-MS/MS after in vitro kinase reaction (recombinant OML4): We identified 18 phosphopeptides of OML4, which correspond to 14 phosphosites

B2: full length GSK2, yeast two-hybrid prey (GSK2 cDNA in pGADT7) (enzyme)
chain: MDQPAPAPEPMLLDAQPPAAVACDKKQQEGEAPYAEGNDAVTGHIISTTIGGKNGEPKRTISYMAERVVGTGSFGIVFQAKCLETGETVAIKKVLQDRRYKNRELQLMRAMDHPNVISLKHCFFSTTSRDELFLNLVMEYVPETLYRVLKHYSNANHRMPLIYVKLYMYQLFRGLAYIHTVPGVCHRDVKPQNVLVDPLTHQVKLCDFGSAKTLVPGEPNISYICSRYYRAPELIFGATEYTTSIDIWSAGCVLAELLLGQPLFPGESAVDQLVEIIKVLGTPTREEIRCMNPNYTEFRFPQIKAHPWHKVFHKRMPPEAIDLASRLLQYSPSLRCTALDACAHPFFDELREPNARLPNGRPFPPLFNFKHELANSSQELISRLIPEHVRRQATHNFFNTGS
notes: Expressed in yeast cells; The six GSK2 clones found in the first screen are not described further; also called glycogen synthase kinase 2; SHAGGY-like kinase; not shown: fusion partner encoded by vector pGADT7
- binding result [1]: binds

B3: GSK2-nYFP (enzyme)
chain: MDQPAPAPEPMLLDAQPPAAVACDKKQQEGEAPYAEGNDAVTGHIISTTIGGKNGEPKRTISYMAERVVGTGSFGIVFQAKCLETGETVAIKKVLQDRRYKNRELQLMRAMDHPNVISLKHCFFSTTSRDELFLNLVMEYVPETLYRVLKHYSNANHRMPLIYVKLYMYQLFRGLAYIHTVPGVCHRDVKPQNVLVDPLTHQVKLCDFGSAKTLVPGEPNISYICSRYYRAPELIFGATEYTTSIDIWSAGCVLAELLLGQPLFPGESAVDQLVEIIKVLGTPTREEIRCMNPNYTEFRFPQIKAHPWHKVFHKRMPPEAIDLASRLLQYSPSLRCTALDACAHPFFDELREPNARLPNGRPFPPLFNFKHELANSSQELISRLIPEHVRRQATHNFFNTGS
notes: Transiently expressed in N. benthamiana leaves; Order of the pieces follows the printed name; also called GSK2 fused with the N-terminus of the yellow fluorescent protein; not shown: N-terminus of the yellow fluorescent protein (nYFP, vector pGBW414-nYFP)
- binding result (OML4-cYFP): binds
